Drawing on ChEMBL document CHEMBL1250451, “Mechanistic insights into a Ca2+-dependent family of alpha-mannosidases in a human gut symbiont” (Nat Chem Biol, 2010), this text covers Km, kcat and kcat/Km for two proteins.

What all share (type): protein assay
Substrate in data set [1]: O=[N+]([O-])c1ccc(O[C@H]2O[C@H](CO)[C@@H](O)[C@H](O)[C@@H]2O)cc1
Kind of data set: (§1) Activity of Bacteroides thetaiotaomicron GH92 alpha-mannosidase 2199 E537A mutant assessed as as mannose release after 16 hrs by HPLC relative to wild type enzyme.

Substrate in data set [2]: OC[C@H]1O[C@H](O[C@H]2[C@@H](O)[C@H](O)[C@@H](CO)O[C@@H]2O)[C@@H](O)[C@@H](O)[C@@H]1O
Described as §1.

Substrate in data set [3]: O=[N+]([O-])c1ccc(O[C@H]2O[C@H](CO)[C@@H](O)[C@H](O)[C@@H]2O)cc1
Kind of data set: (§2) Ratio of Kcat to Km for Bacteroides thetaiotaomicron GH92 alpha-mannosidase 2199 E537A mutant assessed as as mannose release after 16 hrs by HPLC relative to wild type enzyme.

Substrate in data set [4]: OC[C@H]1O[C@H](O[C@H]2[C@@H](O)[C@H](O)[C@@H](CO)O[C@@H]2O)[C@@H](O)[C@@H](O)[C@@H]1O
The description is as §2.

Substrate in data set [5]: O=[N+]([O-])c1ccc(O[C@H]2O[C@H](CO)[C@@H](O)[C@H](O)[C@@H]2O)cc1
Nature of the data set: (§3) Ratio of Kcat to Km for Bacteroides thetaiotaomicron GH92 alpha-mannosidase 2199 E537Q mutant assessed as as mannose release after 16 hrs by HPLC relative to wild type enzyme.

Substrate in data set [6]: OC[C@H]1O[C@H](O[C@H]2[C@@H](O)[C@H](O)[C@@H](CO)O[C@@H]2O)[C@@H](O)[C@@H](O)[C@@H]1O
The data set is described as §3.

Substrate in data set [7]: O=[N+]([O-])c1ccc(O[C@H]2O[C@H](CO)[C@@H](O)[C@H](O)[C@@H]2O)cc1
Kind of data set: (§4) Activity of Bacteroides thetaiotaomicron GH92 alpha-mannosidase 2199 E537Q mutant assessed as as mannose release after 16 hrs by HPLC relative to wild type enzyme.

Substrate in data set [8]: OC[C@H]1O[C@H](O[C@H]2[C@@H](O)[C@H](O)[C@@H](CO)O[C@@H]2O)[C@@H](O)[C@@H](O)[C@@H]1O
Described as §4.

B1: Alpha-1,2-mannosidase (BT_2199) (Bacteroides thetaiotaomicron), Q8A5N9 E537A (protein)
chain: MVTRLFFLSICFPFLLTSCQQSKKTVEFVDYVNPLMGTESTFAFSHGNTYPAVAVPWGMNFWSPQTGENGSGWMYTYTDSLMRGFRQTHQPSPWINDYGTFSIMPLAGELKMSHKERLVPFSHQQEKATPYNYSVTFNNGLQTSLSATSRGAVFEVSFPEKEDQYVVVDAYNGGSSITIEPEKRLVKGATRYNNGGVPDNFANYFMMEFSHPVIEYGTYNGDTLLHHQTDVAADYTCAYLKFDVPAGEKLTIRTASSFISPEQAAINFNREVADADVQLISGKAREQWNNYLGRVEAEGGTDEQLRTFYSCLYRTLLFPREFYEFDSQGNPVYYSPYDGNVHDGYMYTDNGFWDTFRAVHPLFTLLYPEVSERVTQSIINAYNESGFMPEWASPGHRGCMIGNNSVSLLVDAWMKGIQTVDAEKALEAMIHQTQARHAEIASVGRDGFEYYDKLGYVPYPEVPEATAKTLEYAYADWCIARFAESLGKQDIADQYYQKAPNYRNLYYPEHGFMWTKDAKGNWRDRFDATEWGGPFTAGSSWHWTWSVFHDPEGLSELMGGHEPMIARLDSMFVAPNTYNYGTYGFVIHEIAEMVALNMGQYAHGNQPVQHAIYLYDYIGQPWKTQYHLRNVMDKLYNSGSKGYCGDEDNGQTSAWYVFSAMGFYPVCPGMPEYAIGSPLFKKVTLHLPEGKNFVVSAADNAADRPYIRKALLNGQEFTRNYLTHDELKQGGELNLSMDSVPNQQRGTQPADFPYSYSK
Broadly, the Km is the substrate concentration at which the rate is half of its maximum. One may read the kcat as the number of substrate molecules converted per active site and unit of time at saturation. In general, kcat/Km refers to the turnover number divided by the Michaelis constant. B1: the figures for the Km entry in data set [1] and in data set [2] were “Not Active” and 874 µM, respectively. Also, the kcat entry was “Not Active” in data set [1] and 0.00045 s⁻¹ in data set [2]. In addition, the figures for the kcat/Km in data set [3] and in data set [4] were 0.383 M⁻¹ s⁻¹ and 0.517 M⁻¹ s⁻¹, respectively.

B2: Alpha-1,2-mannosidase (BT_2199) (Bacteroides thetaiotaomicron), Q8A5N9 E537Q (protein)
chain: MVTRLFFLSICFPFLLTSCQQSKKTVEFVDYVNPLMGTESTFAFSHGNTYPAVAVPWGMNFWSPQTGENGSGWMYTYTDSLMRGFRQTHQPSPWINDYGTFSIMPLAGELKMSHKERLVPFSHQQEKATPYNYSVTFNNGLQTSLSATSRGAVFEVSFPEKEDQYVVVDAYNGGSSITIEPEKRLVKGATRYNNGGVPDNFANYFMMEFSHPVIEYGTYNGDTLLHHQTDVAADYTCAYLKFDVPAGEKLTIRTASSFISPEQAAINFNREVADADVQLISGKAREQWNNYLGRVEAEGGTDEQLRTFYSCLYRTLLFPREFYEFDSQGNPVYYSPYDGNVHDGYMYTDNGFWDTFRAVHPLFTLLYPEVSERVTQSIINAYNESGFMPEWASPGHRGCMIGNNSVSLLVDAWMKGIQTVDAEKALEAMIHQTQARHAEIASVGRDGFEYYDKLGYVPYPEVPEATAKTLEYAYADWCIARFAESLGKQDIADQYYQKAPNYRNLYYPEHGFMWTKDAKGNWRDRFDATEWGGPFTQGSSWHWTWSVFHDPEGLSELMGGHEPMIARLDSMFVAPNTYNYGTYGFVIHEIAEMVALNMGQYAHGNQPVQHAIYLYDYIGQPWKTQYHLRNVMDKLYNSGSKGYCGDEDNGQTSAWYVFSAMGFYPVCPGMPEYAIGSPLFKKVTLHLPEGKNFVVSAADNAADRPYIRKALLNGQEFTRNYLTHDELKQGGELNLSMDSVPNQQRGTQPADFPYSYSK
For the protein B2, the kcat/Km in data set [5] is 19.5 M⁻¹ s⁻¹; in data set [6], 0.767 M⁻¹ s⁻¹. For the same protein, the Km in data set [7] is 3100 µM; in data set [8] it was 571 µM. For the same protein, the kcat in data set [7] came out at 0.06 s⁻¹; in data set [8], 0.000433 s⁻¹.
